The text below walks through data of US20150299322A1 (Dana-Farber, published 2015).

For test [1], the target named is T1, recombinant mRGMc-HIS (R&D) (mouse, UniProt Q7TQ32 33-393, limits assumed).
T1 construct: Bought from R&D; also called hemojuvelin; not shown: HIS tag
T1 sequence (looked up): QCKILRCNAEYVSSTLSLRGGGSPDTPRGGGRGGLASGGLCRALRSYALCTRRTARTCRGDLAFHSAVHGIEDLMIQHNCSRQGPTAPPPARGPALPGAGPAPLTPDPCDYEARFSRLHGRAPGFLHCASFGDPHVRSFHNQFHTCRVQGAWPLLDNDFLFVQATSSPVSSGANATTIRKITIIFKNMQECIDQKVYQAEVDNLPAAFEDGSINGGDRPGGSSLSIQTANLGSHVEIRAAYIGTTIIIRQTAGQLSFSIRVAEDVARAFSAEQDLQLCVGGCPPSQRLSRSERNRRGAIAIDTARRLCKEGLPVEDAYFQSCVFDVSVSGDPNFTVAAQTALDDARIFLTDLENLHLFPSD
In words: ELISA, coated mRGMc-HIS. Here is the method:
(§1) To examine RGMa/RGMb/RGMc and PD-L2 interaction, 96-well ELISA plates were coated with 2 or 5 μg/ml of recombinant mRGMa-HIS, mRGMb-HIS, mRGMc-HIS, or hRGMb-HIS (R&D). Then, serial dilutions of mPD-L2-hIgG1/IgA, mPD-L2-mIgG2a/IgA, hPD-L2-mIgG2a or control-Ig fusion proteins were added and incubated for 1h at 37° C. Fab₂ goat anti-hIgG-HRP (Jackson ImmunoResearch Laboratories) or rat anti-mIgG2a-HRP (BD Biosciences) at 1:1000 or 1:10000 were used for detection.

Test [2] has as its target T2, recombinant mRGMa-HIS (R&D) (mouse, UniProt Q6PCX7 48-427, limits assumed).
T2 construct: Bought from R&D; not shown: HIS tag
T2 sequence (looked up): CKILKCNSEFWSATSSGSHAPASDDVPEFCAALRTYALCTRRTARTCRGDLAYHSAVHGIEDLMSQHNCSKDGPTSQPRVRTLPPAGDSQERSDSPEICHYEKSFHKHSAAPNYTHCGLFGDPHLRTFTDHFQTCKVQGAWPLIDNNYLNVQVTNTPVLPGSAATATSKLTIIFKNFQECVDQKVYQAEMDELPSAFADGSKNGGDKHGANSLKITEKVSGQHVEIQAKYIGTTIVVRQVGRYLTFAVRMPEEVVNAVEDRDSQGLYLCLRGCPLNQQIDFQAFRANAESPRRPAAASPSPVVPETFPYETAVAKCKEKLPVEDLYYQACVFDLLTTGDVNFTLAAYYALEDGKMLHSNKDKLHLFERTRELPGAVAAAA
In words: ELISA, coated mRGMa-HIS. As to the method:
as §1
A general note: In an ELISA, binding on a coated surface is turned into a signal by an enzyme label.

Test [3] addresses T3, mouse RGMb (mRGMb) expressed on transfected cells (mouse, UniProt Q7TQ33 49-415).
T3 construct: whole, on cells; Also used for mRGMb in cell lysates (Western blot); also called DRAGON; 300-mRGMb cells
T3 sequence (looked up): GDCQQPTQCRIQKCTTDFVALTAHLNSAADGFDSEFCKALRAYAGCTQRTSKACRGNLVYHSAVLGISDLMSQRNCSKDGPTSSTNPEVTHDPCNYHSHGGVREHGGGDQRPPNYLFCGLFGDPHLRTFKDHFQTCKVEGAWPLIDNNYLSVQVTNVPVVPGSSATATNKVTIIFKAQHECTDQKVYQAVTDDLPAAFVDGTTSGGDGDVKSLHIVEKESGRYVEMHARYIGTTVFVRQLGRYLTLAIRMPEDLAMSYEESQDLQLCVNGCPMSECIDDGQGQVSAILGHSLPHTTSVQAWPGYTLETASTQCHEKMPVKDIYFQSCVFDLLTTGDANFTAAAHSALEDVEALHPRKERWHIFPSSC
In words: flow cytometry on mRGMb transiently transfected COS cells. As to the method:
A panel of murine activated lymphocyte cDNA expression libraries were transiently transfected into COS cells using DEAE-Dextran or Lipofectamine as facilitator (Freeman et al. (1989) J. Immunol. 143:2714-2722). After 44 hours, COS cells were harvested and panned on mPD-L2-mIgG2a/IgA coated petri plates. Episomal DNA was recovered and electroporated into E. coli DH10B/P3. Spheroplast fusion was used to reintroduce the plasmids into COS cells for subsequent rounds of expression and panning. Before the second and third rounds, COS cells expressing PD-1 were removed by incubating with PD-1 mAb followed by depletion with goat anti-rat IgG magnetic beads. After the third round of panning, individual plasmids were transfected into COS cells and binding of PD-L2-Ig to RGMb was verified by flow cytometry on mRGMb transiently transfected COS cells. At least four independent mRGMb cDNA clones were isolated.

The target of test [4] is T4, recombinant hRGMb-HIS (R&D) (human, UniProt Q6NW40 46-413).
T4 construct: Bought from R&D; not shown: HIS tag
T4 sequence: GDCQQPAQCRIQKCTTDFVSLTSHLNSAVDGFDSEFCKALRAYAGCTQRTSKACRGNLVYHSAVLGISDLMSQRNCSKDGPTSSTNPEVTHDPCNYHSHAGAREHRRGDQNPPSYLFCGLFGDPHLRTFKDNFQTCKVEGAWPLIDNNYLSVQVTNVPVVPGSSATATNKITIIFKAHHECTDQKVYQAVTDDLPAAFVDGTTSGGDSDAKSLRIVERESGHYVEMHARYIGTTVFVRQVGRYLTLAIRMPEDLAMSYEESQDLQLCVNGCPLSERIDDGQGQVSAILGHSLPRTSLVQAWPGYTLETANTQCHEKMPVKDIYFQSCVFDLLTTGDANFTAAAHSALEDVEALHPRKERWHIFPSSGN
Briefly: ELISA, coated hRGMb-HIS, PD-L2-Ig in solution. As to the method: as §1

The target of test [5] is T5, recombinant mRGMb-HIS (R&D) (mouse, UniProt Q7TQ33 49-415, limits assumed).
T5 construct: Bought from R&D; not shown: HIS tag
T5 sequence (looked up): T3 sequence (looked up)
In words: ELISA, coated BMP-2/4, mRGMb-HIS and PD-L2-Ig at 10 ug/ml, detection of the hIgG part. Here is the method:
To determine if RGMb binds PD-L2 and BMP-2/4 simultaneously, 96-well ELISA plates were coated with BMP-2/4 as above. mPD-L2-hIgG1/IgA, mPD-L2-hIgG (R&D), mPD-L1-hIgG (R&D) or control-Ig fusion proteins at 10 μg/ml were preincubated with 10 μg/ml mRGMb-HIS (R&D) or buffer alone for 15 min. at room temperature (RT), then added to the plates and incubated for 1h at 37° C. Alternatively, 10 μg/ml mRGMb-HIS (R&D) or buffer alone was added first to the plates and incubated for 1h at 37° C. After wash, mPD-L2-Ig or control-Ig fusion proteins were added and incubated for 1h at 37° C. Fab₂ goat anti-hIgG-HRP (Jackson ImmunoResearch Laboratories) at 1:10000 was used for detection.
To test if RGMb can bind both PD-L2 and BMP at the same time, an ELISA was performed to analyze the binding capacity of PD-L2-Ig fusion protein to immobilized BMP-2/4 in the presence or absence of RGMb. PD-L2 could not directly bind to BMP-2/4, but in the presence of RGMb could form a complex with BMP when RGMb and PD-L2-Ig were added simultaneously (FIG. 4A-4B) or sequentially to BMP-2/4.

B1: mPD-L2-Ig fusion protein (construct not told at the result) (Fc fusion, mouse, UniProt Q9WUL5 20-221, looked up)
chain: LFTVTAPKEVYTVDVGSSVSLECDFDRRECTELEGIRASLQKVENDTSLQSERATLLEEQLPLGKALFHIPSVQVRDSGQYRCLVICGAAWDYKYLTVKVKASYMRIDTRILEVPGTGEVQLTCQARGYPLAEVSWQNVSVPANTSHIRTPEGLYQVTSVLRLKPQPSRNFSCMFWNAHMKELTSAIIDPLSRMEPKVPRTW
notes: extracellular domain; not shown: Ig part: the methods name mPD-L2-hIgG1/IgA, mPD-L2-mIgG2a/IgA and mPD-L2-hIgG (R&D)
As to B1, the binding result in test [1] is reported as “no binding”; in test [2], “no binding”; in test [3], “binds”; in test [4] it was “binds”; in test [5], “binds”.
